Data taken from the supplement of paper PMC10567573.

B1: RSPH3 (parent)
chain: MTVKPAKAASLARNLAKRRRTYLG
B2: SETD8 (parent)
chain: KKAQGKTQQNRKLTDFYPVRRSSR

Variants of: B1
Assay: protein stability index of a GFP-peptide fusion (GPS, HEK-293T) (PSI 1-6); higher = more stable
Details: c terminus: a fixed tail appended
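Further: lentivirally expressed fusions sorted by FACS into six bins by GFP to DsRed ratio, PSI derived from sequencing read proportions per bin multiplied by bin number.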

Q: With MTVKPAKAASLARNLQKRRRTYLG [A16Q] as the variant, how does the protein stability index read?
A: Its protein stability index is 2.19.

Q: Which protein stability index does the source give for MTVKPAKAASLARNLDKRRRTYLG [A16D] here?
A: The protein stability index was 3.04.

Q: With MTVKPAKAASLARNLWKRRRTYLG [A16W] as the variant, how does the protein stability index read?
A: Its protein stability index is 1.82.

Q: For MTVKPAKAASLARNLHKRRRTYLG [A16H], which protein stability index is on record?
A: Its protein stability index is 3.91.

Q: With MTVKPAKAASLARNLTKRRRTYLG [A16T] as the variant, how does the protein stability index read?
A: The protein stability index was 2.69.

Q: For MTVKPAKAASLARNLAHRRRTYLG [K17H], which protein stability index is on record?
A: Its protein stability index is 2.99.

Q: For MTVKPAKAASLARNLAFRRRTYLG [K17F], which protein stability index is on record?
A: The protein stability index was 2.1.

Q: With MTVKPAKAASLARNLAERRRTYLG [K17E] as the variant, how does the protein stability index read?
A: Its protein stability index is 2.99.

Q: Which protein stability index does the source give for MTVKPAKAASLARNLARRRRTYLG [K17R] here?
A: The protein stability index was 3.04.

Q: For MTVKPAKAASLARNLADRRRTYLG [K17D], which protein stability index is on record?
A: Its protein stability index is 3.25.

Q: Which protein stability index does the source give for MTVKPAKAASLARNLAVRRRTYLG [K17V] here?
A: Its protein stability index is 2.64.

Q: Which protein stability index does the source give for MTVKPAKAASLARNLAQRRRTYLG [K17Q] here?
A: The protein stability index was 2.49.

Q: Which protein stability index does the source give for MTVKPAKAASLARNLAWRRRTYLG [K17W] here?
A: The protein stability index was 1.92.

Q: Which protein stability index does the source give for MTVKPAKAASLARNLAPRRRTYLG [K17P] here?
A: The protein stability index was 3.02.

Q: Which protein stability index does the source give for MTVKPAKAASLARNLAMRRRTYLG [K17M] here?
A: Its protein stability index is 2.8.

Q: With MTVKPAKAASLARNLAIRRRTYLG [K17I] as the variant, how does the protein stability index read?
A: The protein stability index was 2.46.

Q: Which protein stability index does the source give for MTVKPAKAASLARNLALRRRTYLG [K17L] here?
A: The protein stability index was 2.61.

Q: For MTVKPAKAASLARNLAARRRTYLG [K17A], which protein stability index is on record?
A: Its protein stability index is 3.39.

Q: With MTVKPAKAASLARNLATRRRTYLG [K17T] as the variant, how does the protein stability index read?
A: Its protein stability index is 3.

Q: For MTVKPAKAASLARNLAYRRRTYLG [K17Y], which protein stability index is on record?
A: The protein stability index was 2.38.

Q: Which protein stability index does the source give for MTVKPAKAAALARNLAKRRRTYLG [S10A] here?
A: The protein stability index was 2.86.

Q: For MTVKPAKAAVLARNLAKRRRTYLG [S10V], which protein stability index is on record?
A: Its protein stability index is 3.34.

Q: For MTVKPAKAAKLARNLAKRRRTYLG [S10K], which protein stability index is on record?
A: The protein stability index was 2.1.

Q: Which protein stability index does the source give for MTVKPAKAAGLARNLAKRRRTYLG [S10G] here?
A: The protein stability index was 2.88.

Q: With MTVKPAKAADLARNLAKRRRTYLG [S10D] as the variant, how does the protein stability index read?
A: Its protein stability index is 2.96.

Q: Which protein stability index does the source give for MTVKPAKAAWLARNLAKRRRTYLG [S10W] here?
A: Its protein stability index is 2.47.

Q: With MTVKPAKAASLERNLAKRRRTYLG [A12E] as the variant, how does the protein stability index read?
A: The protein stability index was 2.83.

Q: Which protein stability index does the source give for MTVKPAKAASLRRNLAKRRRTYLG [A12R] here?
A: Its protein stability index is 3.67.

Q: For MTVKPAKAASLCRNLAKRRRTYLG [A12C], which protein stability index is on record?
A: The protein stability index was 2.87.

Q: With MTVKPAKAASLTRNLAKRRRTYLG [A12T] as the variant, how does the protein stability index read?
A: Its protein stability index is 3.28.

Q: With MTVFPAKAASLARNLAKRRRTYLG [K4F] as the variant, how does the protein stability index read?
A: The protein stability index was 2.34.

Q: Which protein stability index does the source give for MTVWPAKAASLARNLAKRRRTYLG [K4W] here?
A: The protein stability index was 2.25.

Q: For MTVTPAKAASLARNLAKRRRTYLG [K4T], which protein stability index is on record?
A: The protein stability index was 3.38.

Q: For MTVVPAKAASLARNLAKRRRTYLG [K4V], which protein stability index is on record?
A: Its protein stability index is 2.6.

Q: With MTVQPAKAASLARNLAKRRRTYLG [K4Q] as the variant, how does the protein stability index read?
A: Its protein stability index is 3.95.

Q: With MTVIPAKAASLARNLAKRRRTYLG [K4I] as the variant, how does the protein stability index read?
A: The protein stability index was 1.87.

Q: With MTVNPAKAASLARNLAKRRRTYLG [K4N] as the variant, how does the protein stability index read?
A: Its protein stability index is 2.69.

Q: For MTVLPAKAASLARNLAKRRRTYLG [K4L], which protein stability index is on record?
A: The protein stability index was 2.13.

Q: Which protein stability index does the source give for MTVKMAKAASLARNLAKRRRTYLG [P5M] here?
A: The protein stability index was 2.92.

Q: Which protein stability index does the source give for MTVKNAKAASLARNLAKRRRTYLG [P5N] here?
A: Its protein stability index is 3.24.

Q: With MTVKLAKAASLARNLAKRRRTYLG [P5L] as the variant, how does the protein stability index read?
A: The protein stability index was 3.36.

Q: With MTVKYAKAASLARNLAKRRRTYLG [P5Y] as the variant, how does the protein stability index read?
A: The protein stability index was 2.14.

Q: With MTVKIAKAASLARNLAKRRRTYLG [P5I] as the variant, how does the protein stability index read?
A: Its protein stability index is 1.73.

Q: For MTVKRAKAASLARNLAKRRRTYLG [P5R], which protein stability index is on record?
A: Its protein stability index is 2.48.

Q: With MTVKTAKAASLARNLAKRRRTYLG [P5T] as the variant, how does the protein stability index read?
A: The protein stability index was 3.29.

Q: With MTVKPAVAASLARNLAKRRRTYLG [K7V] as the variant, how does the protein stability index read?
A: Its protein stability index is 2.44.

Q: With MTVKPAFAASLARNLAKRRRTYLG [K7F] as the variant, how does the protein stability index read?
A: The protein stability index was 2.2.

Q: With MTVKPAWAASLARNLAKRRRTYLG [K7W] as the variant, how does the protein stability index read?
A: The protein stability index was 3.15.

Q: With MTVKPAKAASLARNLAKRRRTYHG [L23H] as the variant, how does the protein stability index read?
A: Its protein stability index is 3.9.

Q: With MTVKPAKAASLARNLAKRRRTYEG [L23E] as the variant, how does the protein stability index read?
A: Its protein stability index is 4.43.

Q: For MTVKPAKAASLARNLAKRRRTYPG [L23P], which protein stability index is on record?
A: The protein stability index was 3.42.

Q: With MTVKPAKAASLARNLAKRRRTYTG [L23T] as the variant, how does the protein stability index read?
A: Its protein stability index is 4.09.

Q: With MTVKPAKAASLARNLAKRRRTYSG [L23S] as the variant, how does the protein stability index read?
A: The protein stability index was 4.5.

Q: Which protein stability index does the source give for MTVKPAKAASLARNLAKRRRTYGG [L23G] here?
A: The protein stability index was 4.13.

Q: With MTVKPAKAASLARNLAKRRRTYFG [L23F] as the variant, how does the protein stability index read?
A: Its protein stability index is 3.2.

Q: Which protein stability index does the source give for MTVKPAKAASLARNLAKRRRTYDG [L23D] here?
A: Its protein stability index is 3.71.

Q: With MTVKPAKAASLARNLAKRRRTYWG [L23W] as the variant, how does the protein stability index read?
A: Its protein stability index is 3.34.

Q: For MTVKPAKAASLARNLAKRRRAYLG [T21A], which protein stability index is on record?
A: Its protein stability index is 3.09.

Q: Which protein stability index does the source give for MTVKPAKAASLARNLAKRRRNYLG [T21N] here?
A: The protein stability index was 2.98.

Q: With MTVKPAKAASLARNLAKRRRIYLG [T21I] as the variant, how does the protein stability index read?
A: Its protein stability index is 2.54.

Q: With MTVKPAKAASLARNLAKRRRRYLG [T21R] as the variant, how does the protein stability index read?
A: Its protein stability index is 3.18.

Q: With MTVKPAKAASLARNLAKRRRWYLG [T21W] as the variant, how does the protein stability index read?
A: The protein stability index was 1.77.

Q: With MTVKPAKAASLARNLAKRRRYYLG [T21Y] as the variant, how does the protein stability index read?
A: Its protein stability index is 2.13.

Q: With MTVKPAKSASLARNLAKRRRTYLG [A8S] as the variant, how does the protein stability index read?
A: The protein stability index was 2.55.

Q: For MTVKPAKHASLARNLAKRRRTYLG [A8H], which protein stability index is on record?
A: Its protein stability index is 2.68.

Q: For MTVKPAKVASLARNLAKRRRTYLG [A8V], which protein stability index is on record?
A: Its protein stability index is 2.57.

Q: Which protein stability index does the source give for MTVKPAKQASLARNLAKRRRTYLG [A8Q] here?
A: Its protein stability index is 2.5.

Q: Which protein stability index does the source give for MTVKPAKFASLARNLAKRRRTYLG [A8F] here?
A: The protein stability index was 2.03.

Q: Which protein stability index does the source give for MTVKPAKYASLARNLAKRRRTYLG [A8Y] here?
A: The protein stability index was 2.04.

Q: With MTVKPAKNASLARNLAKRRRTYLG [A8N] as the variant, how does the protein stability index read?
A: The protein stability index was 2.58.

Q: With MTVKPAKKASLARNLAKRRRTYLG [A8K] as the variant, how does the protein stability index read?
A: The protein stability index was 3.23.

Q: With MTVKPAKRASLARNLAKRRRTYLG [A8R] as the variant, how does the protein stability index read?
A: The protein stability index was 2.3.

Q: Which protein stability index does the source give for MTVKPAKCASLARNLAKRRRTYLG [A8C] here?
A: Its protein stability index is 2.52.

Variants of: B2
Assay: as above
Details: c terminus: a fixed tail appended

Q: With KKAQGKTQQERKLTDFYPVRRSSR [N10E] as the variant, how does the protein stability index read?
A: Its protein stability index is 2.67.

Q: Which protein stability index does the source give for KKAQGKTQQSRKLTDFYPVRRSSR [N10S] here?
A: The protein stability index was 2.35.

Q: Which protein stability index does the source give for KKAQGKTQQNRKLTDFYPVRRSKR [S23K] here?
A: The protein stability index was 4.11.

Q: With KKAQGKTQQNRKLTDFYPVRRSSF [R24F] as the variant, how does the protein stability index read?
A: The protein stability index was 2.57.

Q: Which protein stability index does the source give for KKAQSKTQQNRKLTDFYPVRRSSR [G5S] here?
A: The protein stability index was 2.62.

Q: With KKAQGKTQQNFKLTDFYPVRRSSR [R11F] as the variant, how does the protein stability index read?
A: The protein stability index was 2.91.

Q: For KHAQGKTQQNRKLTDFYPVRRSSR [K2H], which protein stability index is on record?
A: Its protein stability index is 3.35.

Q: Which protein stability index does the source give for KKAQGGTQQNRKLTDFYPVRRSSR [K6G] here?
A: Its protein stability index is 3.09.

Q: Which protein stability index does the source give for KKAQGRTQQNRKLTDFYPVRRSSR [K6R] here?
A: The protein stability index was 3.1.

Q: Which protein stability index does the source give for KKAQGKRQQNRKLTDFYPVRRSSR [T7R] here?
A: Its protein stability index is 3.38.

Q: Which protein stability index does the source give for KKAQGKTQQNRKLTIFYPVRRSSR [D15I] here?
A: The protein stability index was 3.18.

Q: With KKAQGKTQQNRKLTRFYPVRRSSR [D15R] as the variant, how does the protein stability index read?
A: The protein stability index was 3.62.

Q: Which protein stability index does the source give for KKEQGKTQQNRKLTDFYPVRRSSR [A3E] here?
A: Its protein stability index is 3.01.

Q: Which protein stability index does the source give for KKAQGKTQQNRKLTDFYPVSRSSR [R20S] here?
A: The protein stability index was 2.

Q: For KKAQGKTQQNRKLTDFYPVQRSSR [R20Q], which protein stability index is on record?
A: The protein stability index was 3.48.

Q: For KKAQGKTQQNRKLTDFYPVRDSSR [R21D], which protein stability index is on record?
A: The protein stability index was 3.23.

Q: Which protein stability index does the source give for KKAQGKTQGNRKLTDFYPVRRSSR [Q9G] here?
A: Its protein stability index is 1.89.

Q: With KKAQGKTQQNRKLTDFLPVRRSSR [Y17L] as the variant, how does the protein stability index read?
A: Its protein stability index is 2.84.

Q: With KKAQGKTQQNRKLTDFVPVRRSSR [Y17V] as the variant, how does the protein stability index read?
A: Its protein stability index is 3.37.

Q: With KKAQGKTGQNRKLTDFYPVRRSSR [Q8G] as the variant, how does the protein stability index read?
A: Its protein stability index is 2.28.

Q: With KKAQGKTHQNRKLTDFYPVRRSSR [Q8H] as the variant, how does the protein stability index read?
A: Its protein stability index is 2.59.
